Biological target: T1, H4R-Nluc (human, UniProt Q9H3N8-1 1-390)
T1 construct: histamine H4 receptor (H4R), human; Nluc fused in frame to the intracellular C-terminal tail; also called H4R-Nluc/pcDEF3; human H4R-Nluc fusion; source: HEK293T, transiently transfected, in living cells; not shown: NanoLuc (Nluc), C-terminal, kept
Test: FRET or BRET; saturation BRET in living HEK293T cells; constant H4R-Nluc donor (12.5 ng) with 0-500 ng mVenus-tagged TSPAN4 acceptor plasmid; HBSS, 37 °C; vehicle or 10 µM histamine; one site-specific binding fit
Conditions: partners not purified

T1 sequence (Q9H3N8 whole entry, the tested form may be a part): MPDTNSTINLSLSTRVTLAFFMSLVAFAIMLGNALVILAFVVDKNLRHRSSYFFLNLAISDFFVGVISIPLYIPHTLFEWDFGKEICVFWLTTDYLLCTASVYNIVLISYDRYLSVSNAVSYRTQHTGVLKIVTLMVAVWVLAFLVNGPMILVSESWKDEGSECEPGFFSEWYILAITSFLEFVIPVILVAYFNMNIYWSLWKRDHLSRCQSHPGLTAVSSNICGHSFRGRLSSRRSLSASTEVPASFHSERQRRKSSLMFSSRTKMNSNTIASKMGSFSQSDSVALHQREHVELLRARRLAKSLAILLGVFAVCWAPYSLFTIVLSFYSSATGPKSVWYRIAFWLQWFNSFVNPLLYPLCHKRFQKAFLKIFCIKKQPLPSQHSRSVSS

B1: TSPAN4-mVenus (natural protein, human, UniProt O14817 1-238, looked up)
chain: MARACLQAVKYLMFAFNLLFWLGGCGVLGVGIWLAATQGSFATLSSSFPSLSAANLLIITGAFVMAIGFVGCLGAIKENKCLLLTFFLLLLLVFLLEATIAILFFAYTDKIDRYAQQDLKKGLHLYGTQGNVGLTNAWSIIQTDFRCCGVSNYTDWFEVYNATRVPDSCCLEFSESCGLHAPGTWWKAPCYETVKVWLQENLLAVGIFGLCTALVQILGLTFAMTMYCQVVKADTYCA
notes: tetraspanin 4 (TSPAN4), human; stop codon replaced by SpeI-NotI sites coding for a TSAAA linker, mVenus at the intracellular C-terminus; also called TSPAN4-mVenus/pcDEF3; source: HEK293T, transiently transfected, in living cells; not shown: mVenus (with TSAAA linker), C-terminal, kept
BRET50 (vehicle): 0.45 mVenus/Nluc ratio
BRET50 (with 10 µM histamine): 0.68 mVenus/Nluc ratio

B2: mVenus-TSPAN4 (natural protein, human, UniProt O14817 2-238, looked up)
chain: ARACLQAVKYLMFAFNLLFWLGGCGVLGVGIWLAATQGSFATLSSSFPSLSAANLLIITGAFVMAIGFVGCLGAIKENKCLLLTFFLLLLLVFLLEATIAILFFAYTDKIDRYAQQDLKKGLHLYGTQGNVGLTNAWSIIQTDFRCCGVSNYTDWFEVYNATRVPDSCCLEFSESCGLHAPGTWWKAPCYETVKVWLQENLLAVGIFGLCTALVQILGLTFAMTMYCQVVKADTYCA
notes: tetraspanin 4 (TSPAN4), human; start codon replaced by SpeI-NotI sites coding for a TSAAA linker, mVenus at the intracellular N-terminus; also called mVenus-TSPAN4/pcDNA3.1; source: HEK293T, transiently transfected, in living cells (BRET) and in lysate (co-IP); not shown: mVenus (with TSAAA linker), N-terminal, kept
BRET50 (vehicle): 0.79 mVenus/Nluc ratio
BRET50 (with 10 µM histamine): 0.92 mVenus/Nluc ratio

— publication PMC8394291, “Identification of TSPAN4 as Novel Histamine H4 Receptor Interactor” (Biomolecules, 2021)
